Key:
p63-DBD = molecular target: T1, p63-DBD (UniProt Q9H3D4); assay: fluorescence polarization; details: FP: 100 nM 5'-fluorescein dsDNA, 10 mM sodium phosphate pH 7.2, 1 mM DTT, temperature not stated; NMR: 1 mM sodium phosphate pH 7.2, 100 mM NaCl, 5 mM DTT …
T1 sequence: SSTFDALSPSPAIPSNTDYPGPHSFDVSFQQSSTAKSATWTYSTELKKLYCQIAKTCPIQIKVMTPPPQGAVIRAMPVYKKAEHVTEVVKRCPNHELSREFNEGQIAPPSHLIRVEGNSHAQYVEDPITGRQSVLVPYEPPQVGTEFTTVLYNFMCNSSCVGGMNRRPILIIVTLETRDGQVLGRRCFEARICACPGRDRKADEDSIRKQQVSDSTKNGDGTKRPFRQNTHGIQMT

p53 DBD (Homo sapiens) = p53 DBD (Homo sapiens) (UniProt P04637); details: cited from earlier work
[1] = molecular target: fluorescein-labeled BclxLΔTM (human) (UniProt Q07817); assay: fluorescence polarisation; 100 nM N-terminally fluorescein-labeled BclxLΔTM titrated with increasing amounts of p63-DBD; 10 mM sodium phosphate pH 7.2, 1 mM DTT; one-site or cooperative binding model; triplicate
Chain of fluorescein-labeled BclxLΔTM (human) (Q07817 1-212, stated change not applied): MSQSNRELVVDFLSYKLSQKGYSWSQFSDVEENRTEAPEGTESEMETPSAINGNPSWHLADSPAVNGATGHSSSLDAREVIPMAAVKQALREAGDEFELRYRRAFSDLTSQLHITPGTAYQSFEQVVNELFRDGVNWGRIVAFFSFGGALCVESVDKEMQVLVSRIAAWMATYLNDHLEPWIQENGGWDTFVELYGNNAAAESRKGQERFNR

Chain of BclxL (Q07817 whole entry): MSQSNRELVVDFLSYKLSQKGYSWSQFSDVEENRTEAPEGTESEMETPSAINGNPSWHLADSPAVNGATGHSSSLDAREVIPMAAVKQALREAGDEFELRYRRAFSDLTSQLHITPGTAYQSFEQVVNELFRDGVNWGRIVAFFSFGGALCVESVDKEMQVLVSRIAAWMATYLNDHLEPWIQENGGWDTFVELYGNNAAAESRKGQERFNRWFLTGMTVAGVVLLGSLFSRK
Chain of p53 DBD (Homo sapiens) (P04637 94-312): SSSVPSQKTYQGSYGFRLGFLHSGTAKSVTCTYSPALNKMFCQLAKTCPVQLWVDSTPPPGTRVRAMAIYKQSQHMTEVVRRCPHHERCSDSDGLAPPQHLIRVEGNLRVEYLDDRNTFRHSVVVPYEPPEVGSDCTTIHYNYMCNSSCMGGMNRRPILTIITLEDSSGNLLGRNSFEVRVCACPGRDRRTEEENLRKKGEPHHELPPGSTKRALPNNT

| Substance | binding signal (fold lower affinity than p53-DBD) (p63-DBD) | further results |
| --- | --- | --- |
| Bax response element | 2 | – |
| BclxL (from UniProt Q07817) | – | Kd (p53 DBD (Homo sapiens)): 5.5 µM |
| Jag-1 response element | 2 | – |
| p21 response element | 2 | – |
| p63 DNA binding domain (from UniProt Q9H3D4 153-388) (domain or fragment) | – | Kd [1]: 38 µM |

Reference: paper PMC4880913
